23 molecules from article PMC10786891, “Massively parallel profiling of RNA-targeting CRISPR-Cas13d” can be followed below.

T1: EsCas13d, nuclease-dead (Eubacterium siraeum, UniProt B0MS50, R295A;H300A;R849A;H854A)
T1 sequence: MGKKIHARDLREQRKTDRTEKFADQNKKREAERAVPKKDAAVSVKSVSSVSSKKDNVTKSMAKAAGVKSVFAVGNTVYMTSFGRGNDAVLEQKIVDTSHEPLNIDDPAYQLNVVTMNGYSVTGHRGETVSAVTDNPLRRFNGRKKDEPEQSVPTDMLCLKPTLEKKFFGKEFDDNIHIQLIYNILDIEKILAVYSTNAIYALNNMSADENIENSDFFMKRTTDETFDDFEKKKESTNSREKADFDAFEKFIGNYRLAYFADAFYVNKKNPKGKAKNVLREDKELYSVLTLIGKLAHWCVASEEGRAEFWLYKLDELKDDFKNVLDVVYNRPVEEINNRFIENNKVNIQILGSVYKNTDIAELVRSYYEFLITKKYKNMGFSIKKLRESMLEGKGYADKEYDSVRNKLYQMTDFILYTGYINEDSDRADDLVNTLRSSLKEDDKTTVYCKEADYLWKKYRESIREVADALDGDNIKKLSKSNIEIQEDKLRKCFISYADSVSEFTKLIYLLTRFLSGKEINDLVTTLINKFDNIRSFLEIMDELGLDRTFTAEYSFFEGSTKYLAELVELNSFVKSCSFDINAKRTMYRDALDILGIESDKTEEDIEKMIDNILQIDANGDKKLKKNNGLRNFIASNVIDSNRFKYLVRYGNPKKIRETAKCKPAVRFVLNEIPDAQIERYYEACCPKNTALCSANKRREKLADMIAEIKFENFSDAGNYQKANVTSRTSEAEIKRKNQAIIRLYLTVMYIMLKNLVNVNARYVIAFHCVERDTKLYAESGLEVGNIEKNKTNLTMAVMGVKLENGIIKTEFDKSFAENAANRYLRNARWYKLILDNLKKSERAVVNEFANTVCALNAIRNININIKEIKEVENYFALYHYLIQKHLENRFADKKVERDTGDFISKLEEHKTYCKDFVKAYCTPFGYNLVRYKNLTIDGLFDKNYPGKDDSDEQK

B1: target 2 MT 5'PFS GUA 3'PFS CUU (mixed)
RNA 1: CACCCGUGCAAAAUUGCAGGGGUCUAAAACCUUCUCCAAAUUGUUUCAUCCU
RNA 2: GGGAAUGGAUCCACAUCUACGAAUUCGUAAGGAUGAAACAAUUUGGAGAAGCUUAGAUCGGAAGAGCACACGU
B2: target 2 MT 5'PFS AUU 3'PFS ACC (mixed)
RNA 1: CACCCGUGCAAAAUUGCAGGGGUCUAAAACCUUCUCCAAAUUGUUUCAUCCU
RNA 2: GGGAAUGGAUCCACAUCUACGAAUUCAUUAGGAUGAAACAAUUUGGAGAAGACCAGAUCGGAAGAGCACACGU
B3: target 2 MT 5'PFS CGU 3'PFS CCG (mixed)
RNA 1: CACCCGUGCAAAAUUGCAGGGGUCUAAAACCUUCUCCAAAUUGUUUCAUCCU
RNA 2: GGGAAUGGAUCCACAUCUACGAAUUCCGUAGGAUGAAACAAUUUGGAGAAGCCGAGAUCGGAAGAGCACACGU
B4: target 2 MT 5'PFS GAG 3'PFS AAC (mixed)
RNA 1: CACCCGUGCAAAAUUGCAGGGGUCUAAAACCUUCUCCAAAUUGUUUCAUCCU
RNA 2: GGGAAUGGAUCCACAUCUACGAAUUCGAGAGGAUGAAACAAUUUGGAGAAGAACAGAUCGGAAGAGCACACGU
B5: target 2 MT 5'PFS GAC 3'PFS CAG (mixed)
RNA 1: CACCCGUGCAAAAUUGCAGGGGUCUAAAACCUUCUCCAAAUUGUUUCAUCCU
RNA 2: GGGAAUGGAUCCACAUCUACGAAUUCGACAGGAUGAAACAAUUUGGAGAAGCAGAGAUCGGAAGAGCACACGU
B6: target 2 MT 5'PFS GAC 3'PFS CAC (mixed)
RNA 1: CACCCGUGCAAAAUUGCAGGGGUCUAAAACCUUCUCCAAAUUGUUUCAUCCU
RNA 2: GGGAAUGGAUCCACAUCUACGAAUUCGACAGGAUGAAACAAUUUGGAGAAGCACAGAUCGGAAGAGCACACGU
B7: target 2 MT 5'PFS GAG 3'PFS AAA (mixed)
RNA 1: CACCCGUGCAAAAUUGCAGGGGUCUAAAACCUUCUCCAAAUUGUUUCAUCCU
RNA 2: GGGAAUGGAUCCACAUCUACGAAUUCGAGAGGAUGAAACAAUUUGGAGAAGAAAAGAUCGGAAGAGCACACGU
B8: target 2 MT 5'PFS AUU 3'PFS ACG (mixed)
RNA 1: CACCCGUGCAAAAUUGCAGGGGUCUAAAACCUUCUCCAAAUUGUUUCAUCCU
RNA 2: GGGAAUGGAUCCACAUCUACGAAUUCAUUAGGAUGAAACAAUUUGGAGAAGACGAGAUCGGAAGAGCACACGU
B9: target 2 MT 5'PFS UUG 3'PFS CCA (mixed)
RNA 1: CACCCGUGCAAAAUUGCAGGGGUCUAAAACCUUCUCCAAAUUGUUUCAUCCU
RNA 2: GGGAAUGGAUCCACAUCUACGAAUUCUUGAGGAUGAAACAAUUUGGAGAAGCCAAGAUCGGAAGAGCACACGU
B10: target 2 MT 5'PFS UGA 3'PFS CAG (mixed)
RNA 1: CACCCGUGCAAAAUUGCAGGGGUCUAAAACCUUCUCCAAAUUGUUUCAUCCU
RNA 2: GGGAAUGGAUCCACAUCUACGAAUUCUGAAGGAUGAAACAAUUUGGAGAAGCAGAGAUCGGAAGAGCACACGU
B11: target 2 MT 5'PFS GUA 3'PFS CUC (mixed)
RNA 1: CACCCGUGCAAAAUUGCAGGGGUCUAAAACCUUCUCCAAAUUGUUUCAUCCU
RNA 2: GGGAAUGGAUCCACAUCUACGAAUUCGUAAGGAUGAAACAAUUUGGAGAAGCUCAGAUCGGAAGAGCACACGU
B12: target 2 MT 5'PFS GAC 3'PFS CAU (mixed)
RNA 1: CACCCGUGCAAAAUUGCAGGGGUCUAAAACCUUCUCCAAAUUGUUUCAUCCU
RNA 2: GGGAAUGGAUCCACAUCUACGAAUUCGACAGGAUGAAACAAUUUGGAGAAGCAUAGAUCGGAAGAGCACACGU
B13: target 2 MT 5'PFS GAG 3'PFS AAG (mixed)
RNA 1: CACCCGUGCAAAAUUGCAGGGGUCUAAAACCUUCUCCAAAUUGUUUCAUCCU
RNA 2: GGGAAUGGAUCCACAUCUACGAAUUCGAGAGGAUGAAACAAUUUGGAGAAGAAGAGAUCGGAAGAGCACACGU
B14: target 2 MT 5'PFS GAA 3'PFS UUU (mixed)
RNA 1: CACCCGUGCAAAAUUGCAGGGGUCUAAAACCUUCUCCAAAUUGUUUCAUCCU
RNA 2: GGGAAUGGAUCCACAUCUACGAAUUCGAAAGGAUGAAACAAUUUGGAGAAGUUUAGAUCGGAAGAGCACACGU
B15: target 2 MT 5'PFS AUU 3'PFS ACA (mixed)
RNA 1: CACCCGUGCAAAAUUGCAGGGGUCUAAAACCUUCUCCAAAUUGUUUCAUCCU
RNA 2: GGGAAUGGAUCCACAUCUACGAAUUCAUUAGGAUGAAACAAUUUGGAGAAGACAAGAUCGGAAGAGCACACGU
B16: target 2 MT 5'PFS GUA 3'PFS CUA (mixed)
RNA 1: CACCCGUGCAAAAUUGCAGGGGUCUAAAACCUUCUCCAAAUUGUUUCAUCCU
RNA 2: GGGAAUGGAUCCACAUCUACGAAUUCGUAAGGAUGAAACAAUUUGGAGAAGCUAAGAUCGGAAGAGCACACGU
B17: target 2 MT 5'PFS GAG 3'PFS AAU (mixed)
RNA 1: CACCCGUGCAAAAUUGCAGGGGUCUAAAACCUUCUCCAAAUUGUUUCAUCCU
RNA 2: GGGAAUGGAUCCACAUCUACGAAUUCGAGAGGAUGAAACAAUUUGGAGAAGAAUAGAUCGGAAGAGCACACGU
B18: target 2 MT 5'PFS GAC 3'PFS CAA (mixed)
RNA 1: CACCCGUGCAAAAUUGCAGGGGUCUAAAACCUUCUCCAAAUUGUUUCAUCCU
RNA 2: GGGAAUGGAUCCACAUCUACGAAUUCGACAGGAUGAAACAAUUUGGAGAAGCAAAGAUCGGAAGAGCACACGU
B19: target 2 MT 5'PFS GUA 3'PFS CUG (mixed)
RNA 1: CACCCGUGCAAAAUUGCAGGGGUCUAAAACCUUCUCCAAAUUGUUUCAUCCU
RNA 2: GGGAAUGGAUCCACAUCUACGAAUUCGUAAGGAUGAAACAAUUUGGAGAAGCUGAGAUCGGAAGAGCACACGU
B20: target 2 MT 5'PFS AUU 3'PFS ACU (mixed)
RNA 1: CACCCGUGCAAAAUUGCAGGGGUCUAAAACCUUCUCCAAAUUGUUUCAUCCU
RNA 2: GGGAAUGGAUCCACAUCUACGAAUUCAUUAGGAUGAAACAAUUUGGAGAAGACUAGAUCGGAAGAGCACACGU
B21: target 1 C7A,U10C (mixed)
RNA 1: CACCCGUGCAAAAAUGCAGGGGUCUAAAACUGAGCGGAUAACCUCUCUAUGG
RNA 2: GGGAAUGGAUCCACAUCUACGAAUUCGUACCAUAGAGAGGUCAUACGCUCACCGAGAUCGGAAGAGCACACGU
B22: target 1 insC 3' of 22,insC 3' of 5 (mixed)
RNA 1: CACCCGUGCAAAAAUGCAGGGGUCUAAAACUGAGCGGAUAACCUCUCUAUGG
RNA 2: GGGAAUGGAUCCACAUCUACGAAUUCGUACCCAUAGAGAGGUUAUCCGCCUCACCGAGAUCGGAAGAGCACACGU
B23: target 1 insU 3' of 20,insC 3' of 19 (mixed)
RNA 1: CACCCGUGCAAAAAUGCAGGGGUCUAAAACUGAGCGGAUAACCUCUCUAUGG
RNA 2: GGGAAUGGAUCCACAUCUACGAAUUCGUACCAUUCAGAGAGGUUAUCCGCUCACCGAGAUCGGAAGAGCACACGU

The data set concerns the target T1, EsCas13d, nuclease-dead. The data set can be described thus: crRNA (strand 1, pre-loaded); Mg2+; 40 mM Tris-HCl pH 7.5, 150 mM NaCl, 6 mM MgCl2, 1 mM DTT, 0.1% Tween-20, 0.2 mg/ml BSA; 25 C; 10 min per concentration, then washed. Particulars: tags: His6-TwinStrep-SUMO cleaved; N-terminal SNAP kept (SNAP-Surface 488); label: 3' end held by stalled T7 RNA polymerase.
In turn, B1 had a Kd of 10.2 ± 1 nM. For the molecule B2, binding was put at a Kd of 15.2 ± 3.1 nM.

Molecule B3 gave a Kd of around 40 nM. With B4 the figure was 6.1 ± 1 nM; with B5, 17 ± 4 nM. The molecule B6 gave a Kd of 12.9 ± 2.4 nM. In turn, B7 showed a Kd of 4.1 ± 0.6 nM. This Kd lies about 3.1-fold lower than the previous one. Take B8: binding was put at a Kd of 9 ± 1 nM. The result for B9 reads 37 ± 10 nM; that for B10, 6.6 ± 0.7 nM; that for B11, 15.5 ± 2.6 nM. In the case of B12, the Kd was found to be 7.4 ± 1.2 nM. With B13 the figure was 5.6 ± 0.5 nM; with B14, 24 ± 4 nM. B15 had a Kd of 9.5 ± 2 nM. For B16, the affinity, expressed as Kd, was 6.5 ± 0.6 nM. Turning to B17, the Kd was 5.6 ± 0.7 nM. In turn, B18 came in with a Kd of 6.2 ± 1.2 nM. As for B19, binding was put at a Kd of 11.1 ± 1.2 nM. Molecule B20 had a Kd of 10.7 ± 1.3 nM. For B21, binding was put at a Kd of 13.6 ± 0.7 nM. B22 gave a dissociation constant Kd of 60 ± 30 nM. The molecule B23 had a dissociation constant Kd of 50 ± 17 nM.
